Substrate in data set [1]: CCCCCCCC(=O)Oc1c(F)cc2c(C)cc(=O)oc2c1F
Nature of the data set: Initial rate of hydrolysis of DiFMU octanoate, wild type. Type of data set: biochemical, Candida antarctica. The conditions noted are these: other: wild type, 50 mM K-phosphate pH 7.0, room temperature. An excerpt:
(§1) Kinetic analysis of protein variants: To examine the impact of circular permutation on catalysis eleven functional CALB variants with termini in or near the active site were selected for detailed kinetic characterization. The locations of the termini in these variants are shown on the structure of CALB in FIG. 6; the numbers correspond to the amino acid residue of the new terminus. Following overexpression in P. pastoris, the selected circularly permuted proteins were purified to homogeneity. The catalytic performance of these variants was determined in activity assays with two standard lipase substrates, measuring the initial rates of hydrolysis of the chromogenic substrate p-nitrophenol butyrate (pNB) and the fluorogenic substrate 6,8-difluoro-4-methylumbelliferyl (DiFMU) octanoate.
(§2) The overexpression and purification of wild type CALB was performed as described in Rotticci-Mulder, J. C. et al., Protein Expr Purif 2001, 21, (3), 386-92, which is hereby incorporated by reference. The same protocol was adopted for the isolation of circular permutation variants of CALB. Briefly, pPIC9-ca/B was linearized by SacI digestion and electroporated into P. pastoris cells (GS115). […]
(§3) Lipase activity was determined by measuring the initial hydrolysis rate of p-NB and DiFMU octanoate at room temperature on a Synergy-HT microtiterplate reader (Bio-Tek Instruments, Winooski, Vt.). Stock solutions of p-NB (200 mM) and DiFMU octanoate (3 mM) were prepared in DMSO. p-NB hydrolysis over a substrate range of 0-1.6 mM was measured in 50 mM K-phosphate buffer (pH 7.5) at 400 nm ( ? for p-NB=13260 M^1 cm^−1) as described in Bender, M. L. et al., J Am Chem Soc 1968, 90, (1), 201-7, which is hereby incorporated by reference. The rate of DiFMU octanoate hydrolysis was determined by measuring the DiFMU formation over a substrate range of 0-12 μM in 50 mM K-phosphate buffer (pH 7.0) at an excitation/emission wavelength 360/460 nm. Kinetic constants were calculated by fitting the initial rates to the Michaelis-Menten equation using the Origin® software (version 7; OriginLab Corporation).

Substrate in data set [2]: CCCC(=O)Oc1ccc([N+](=O)[O-])cc1
Nature of the data set: Initial rate of hydrolysis of p-nitrophenol butyrate (pNB), wild type. It is filed as biochemical, Candida antarctica. The note with it: other: wild type, 50 mM K-phosphate pH 7.5, room temperature.
Excerpt: as §1, §2, §3

B1: Candida antarctica lipase B (CALB), wild type, SEQ ID NO: 2, L1/P317 (Moesziomyces antarcticus) (protein)
chain: LPSGSDPAFSQPKSVLDAGLTCQGASPSSVSKPILLVPGTGTTGPQSFDSNWIPLSAQLGYTPCWISPPPFMLNDTQVNTEYMVNAITTLYAGSGNNKLPVLTWSQGGLVAQWGLTFFPSIRSKVDRLMAFAPDYKGTVLAGPLDALAVSAPSVWQQTTGSALTTALRNAGGLTQIVPTTNLYSATDEIVQPQVSNSPLDSSYLFNGKNVQAQAVCGPLFVIDHAGSLTSQFSYVVGRSALRSTTGQARSADYGITDCNPLPANDLTPEQKVAAAALLAPAAAAIVAGPKQNCEPDLMPYARPFAVGKRTCSGIVTP
Consider B1, for which, in data set [1], the Km came to 2.6 ± 0.3 µM, the catalytic constant (kcat) came to 0.033 ± 0.0017 s⁻¹ and the kcat/Km stood at 13000 M⁻¹ s⁻¹. Besides, in data set [2], the Km was 410 ± 40 µM, the kcat amounted to 5.08 ± 0.167 s⁻¹ and the kcat/Km came out at 12300 M⁻¹ s⁻¹.

(Values after patent US8034579B2, “Proteins with enhanced functionality and methods of making novel proteins using circular permutation” (Emory University, priority 2005, dated 2011).)
